Laboratory results from patent US20160068605A1 (Janssen / Centocor, published 2016).

Legend:
[1] = target: T1, Recombinant human CD123 SP1 ECD-His tag protein (human, UniProt P26951 20-305); assay: SPR Biacore 3000, captured Fab
T1 construct: bought from R&D Systems (#301-R3/CF); biotinylated for some assays; also called rhCD123 SP1; huCD123 ECD SP1
T1 sequence: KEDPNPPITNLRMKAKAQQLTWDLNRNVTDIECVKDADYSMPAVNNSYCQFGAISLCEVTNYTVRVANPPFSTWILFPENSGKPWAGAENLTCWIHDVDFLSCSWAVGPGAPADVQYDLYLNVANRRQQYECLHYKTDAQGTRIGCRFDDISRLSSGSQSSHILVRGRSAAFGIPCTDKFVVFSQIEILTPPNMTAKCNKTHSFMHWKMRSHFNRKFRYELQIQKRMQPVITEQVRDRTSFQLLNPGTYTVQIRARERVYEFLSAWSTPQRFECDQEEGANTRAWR
Method: (§1) Kinetic studies were performed at 25° C. using a Biacore 3000 (BIAcore, Inc., now part of GE Healthcare). […] Sheep anti-Human Fd specific antibody (The binding site Prod # PC075) was covalently attached to two flow cells (normally 3 and 4) of the carboxymethyl dextran coated gold surfaces (CM-5 Chip, Biacore). The carboxymethyl groups of dextran were activated with N-Ethyl-N′-(3-Dimethylaminopropyl)carbodiimide (EDC) and N-hydroxysuccinimide (NHS). The antibodies were coupled at pH 4.5 in 10 mM sodium acetate. Any remaining reactive sites on the surface were blocked by reaction with ethanolamine. […] Association data was collected for 2 min followed by 10 min of dissociation. The surface was regenerated with 30 μL of 100 mM H3PO4 100 μL/min. All samples were prepared in D-PBS containing 3 mM EDTA and 0.005% surfactant P20. Data reported is the difference in SPR signal between the flow cell containing the captured antibody or Fab and a reference cell without captured antibody or Fab. Additional instrumental contributions to the signal were removed by subtraction of the data from the blank injection from the reference-subtracted signal. Data were performed in triplicate and analyzed by fitting association and dissociation phases at all concentrations (global fit) with a 1:1 binding model using the BIAevaluation software (BIAcore, Inc.). […] Data presented is an average.

[2] = target: T2, Recombinant human CD123 SP2 ECD protein (human, UniProt P26951 101-303); assay: SPR Biacore 3000, captured Fab; footnote: assay response is lower than expected
T2 construct: also called rhCD123 SP2; CD123 ECD SP2
T2 sequence: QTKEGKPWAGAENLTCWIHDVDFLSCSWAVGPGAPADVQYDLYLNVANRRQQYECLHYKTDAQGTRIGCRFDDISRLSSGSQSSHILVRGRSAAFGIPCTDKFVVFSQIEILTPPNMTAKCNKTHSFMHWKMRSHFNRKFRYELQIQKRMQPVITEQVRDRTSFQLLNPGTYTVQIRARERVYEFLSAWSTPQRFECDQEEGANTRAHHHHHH
Method: as §1

[3] = target: T3, cyno CD123 ECD displayed on pDisplay-transfected cells (cynomolgus monkey); assay: MSD-CAT on pDisplay cells
T3 construct: ECD anchored on the surface of stably transfected HEK293 cells; also called cynoCD123 SP1 cells; cynoCD123 cells
T3 chain: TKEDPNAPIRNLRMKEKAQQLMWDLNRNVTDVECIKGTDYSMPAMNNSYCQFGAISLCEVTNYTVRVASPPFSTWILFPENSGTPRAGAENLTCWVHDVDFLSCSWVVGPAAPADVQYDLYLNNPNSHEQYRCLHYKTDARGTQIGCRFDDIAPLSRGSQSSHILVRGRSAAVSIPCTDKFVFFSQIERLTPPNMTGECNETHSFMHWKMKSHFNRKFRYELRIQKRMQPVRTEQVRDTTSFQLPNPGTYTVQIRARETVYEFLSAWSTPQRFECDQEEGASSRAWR
Method: (§2) After equilibration the plate was centrifuged for 5 min ˜1000 rpm and free anti-CD3 detected on the supernatant. […] The assay buffer was removed without washing and 50 μL/well of 0.7 μg/mL of biotinylated antigen in assay buffer were added to MSD plates and incubated overnight (˜16 hr at 4° C.). After overnight incubation, the plates were blocked by adding 150 μL/well of assay buffer without removing coating antigen, incubated for ˜1 hr at ambient temperature and washed 5 times with wash buffer (assay buffer without BSA). 50 μL/well of the supernantants from samples plate were transferred to antigen-coated plates, incubated for 60 min, and then washed three times with wash Buffer. After this 50 μL per well of ruthenium labeled detection antibody(anti-human H+L) were added and incubated for 1 hr. After 1 hr the plates were washed and 150 μL of MSD Read Buffer (prepared by diluting 1:4 of stock into d. H₂O) were added per well. The plates were read immediately on the MSD Sector Imager 6000 Reader for luminescence levels. ECL signal detected by MSD was expressed in term of % free antibody in the mixture and the data was analyzed to determine affinity using a user defined equation (derived from the law of mass action) introduced in Prism software.

[4] = target: T2, Recombinant human CD123 SP2 ECD protein; assay: SPR Biacore 3000, captured Fab
Method: as §1

[5] = target: T4, human CD123 SP1 ECD displayed on pDisplay-transfected cells (human, UniProt P26951 20-305); assay: MSD-CAT, hCD123 cells, assay-1
T4 construct: ECD anchored on the surface of stably transfected HEK293 cells by the PDGFR transmembrane domain; also called hCD123 SP1 cells; hCD123 cells
T4 sequence: T1 sequence
Method: as §2

[6] = target: T4, human CD123 SP1 ECD displayed on …; assay: MSD-CAT, hCD123 cells, assay-2
Method: as §2

[7] = target: T3, cyno CD123 ECD displayed on …; assay: MSD-CAT, cynoCD123 cells, assay-1
Method: (§3) The MSD-CAT was developed in-house as a label-free method to determine affinity using intact cells in a high throughput format. […] Cell lines used were human pDisplay CD and cyno pDisplay CD123SP1. […] These samples were prepared in DMEM Glutamax medium containing 0.05% Azide, 1% BSA, 3 mM EDTA. The receptor numbers of (3.15-4.18)×10⁶ hCD123/cell and (4.78-9.24) 10⁶ cyCD123/cell were converted to M receptor concentration in the mixture on the basis of the volume of reaction, the cell density (cells/L) and the Avogadro's number. […] After equilibration the plate was centrifuged for 5 min ˜1000 rpm and free anti-CD3 detected on the supernatant.

[8] = target: T3, cyno CD123 ECD displayed on …; assay: MSD-CAT, cynoCD123 cells, assay-2
Method: as §3

[9] = target: T4, human CD123 SP1 ECD displayed on …; assay: MSD-CAT, hCD123 cells, assay-1, fit with parameter Bo constrained
Method: as §2

[10] = target: T4, human CD123 SP1 ECD displayed on …; assay: MSD-CAT, hCD123 cells, assay-2, fit with parameter Bo constrained
Method: as §2

[11] = target: T5, sp2 isoform of human CD123 ECD with C-terminal 8xHis tag (crystallography) (human, UniProt P26951 101-303); assay: size-exclusion chromatography of the mixed proteins
T5 construct: expressed in baculovirus-infected insect cells; also called CD123 sp2; CD123 SP2 ECD
T5 sequence: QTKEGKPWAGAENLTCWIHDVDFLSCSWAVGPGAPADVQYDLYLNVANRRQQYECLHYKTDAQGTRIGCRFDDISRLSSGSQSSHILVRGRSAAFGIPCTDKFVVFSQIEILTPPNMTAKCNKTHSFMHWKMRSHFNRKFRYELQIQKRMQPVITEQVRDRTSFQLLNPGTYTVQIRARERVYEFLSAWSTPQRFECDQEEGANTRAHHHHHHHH
Method: The protein was concentrated to 18 mg/mL in 20 mM HEPES, pH 7.5, 100 mM NaCl.

B1: I3RB121 (Fab, V domains shown)
VH: QVQLVQSGAEVKKPGSSVKVSCKASGGTFSSYAISWVRQAPGQGLEWMGGIIPIFGTANYAQKFQGRVTITADESTSTAYMELSSLRSEDTAVYYCARHLFWDAGPLDYWGQGTLVTVSS
VL: DIQMTQSPSSLSASVGDRVTITCRASQSISSYLNWYQQKPGKAPKLLIYAASSLQSGVPSRFSGSGSGTDFTLTISSLQPEDFATYYCQQYFSPPYTFGQGTKVEIK
notes: also called Fab of I3RB35
**Q.** For B1, which Kd [1] is on record?
**A.** Its Kd is 6.3 nM.

**Q.** What about the koff [1] of the same binder?
**A.** The koff was 0.00245 s⁻¹.

**Q.** And the kon [1]?
**A.** The kon was 387000 M⁻¹ s⁻¹.

**Q.** And the Kd [2]?
**A.** Its Kd is 1.2 nM.

B2: I3RB120 (Fab, V domains shown)
VH: EVQLLESGGGLVQPGGSLRLSCAASGFTFSGYWMHWVRQAPGKGLEWVSAIRSDGSSKYYADSVKGRFTISRDNSKNTLYLQMNSLRAEDTAVYYCAKDGVIEDTFDYWGQGTLVTVSS
VL: EIVLTQSPATLSLSPGERATLSCRASQSVSSYLAWYQQKPGQAPRLLIYDASNRATGIPARFSGSGSGTDFTLTISSLEPEDFAVYYCQQRSNWPLTFGQGTKVEIK
notes: also called Fab I3RB120; I3RB2 Fab
**Q.** Which “fold difference of affinity against human CD123 SP1” value [3] does the source give for B2 here?
**A.** Its value is < 5 fold.

**Q.** What about the Kd [1] of the same binder?
**A.** Its Kd is 8.5 nM.

**Q.** What about the koff [1] of the same binder?
**A.** Its koff is 0.00304 s⁻¹.

**Q.** And the kon [1]?
**A.** The kon was 357000 M⁻¹ s⁻¹.

**Q.** What about the Kd [4] of the same binder?
**A.** Its Kd is 1.4 nM.

**Q.** And the Kd [5]?
**A.** The Kd was ~0.00337 nM.

**Q.** And the Kd [6]?
**A.** The Kd was ~3.84 nM.

**Q.** What about the Kd [7] of the same binder?
**A.** The Kd was 2.4 nM.

**Q.** And the Kd [8]?
**A.** The Kd was > 11.9 nM.

**Q.** And the Kd [9]?
**A.** Its Kd is 344 nM.

**Q.** What about the Kd [10] of the same binder?
**A.** The Kd was 3.81 nM.

B3: single-chain Fv fragment of anti-CD123 mAb I3RB18 (scFv)
scFv: EIVLTQSPGTLSLSPGERATLSCRASQSVSSSYLAWYQQKPGQAPRLLIYGASSRATGIPDRFSGSGSGTDFTLTISRLEPEDFAVYYCQQDYGFPWTFGQGTKVEIKGGGGSGGGGSGGGGSGGGGSEVQLVQSGAEVKKPGESLKISCKGSGYSFTSYWISWVRQMPGKGLEWMGIIDPSDSDTRYSPSFQGQVTISADKSISTAYLQWSSLKASDTAMYYCARGDGSTDLDYWGQGTLVTVSSGHHHHHH
notes: form VL-(Gly4Ser)4-VH-Gly-His6, expressed in HEK293 Expi cells; also called I3RB18 scFv; I3RB18 derived scFv
**Q.** Does B3 bind [11]?
**A.** Result: binds
